Target: the molecule itself
Assay: SEC; Superdex 200 Increase 10/300; 100 mM Tris-HCl pH 8.5, 150 mM NaCl, 1 mM DTT, 5% glycerol; 0.4 mL/min; His-tag fusion proteins

B1: 6His-AtFH2-FH2 (domain or fragment, Arabidopsis thaliana, UniProt O22824 438-864, looked up)
chain: EKKVETMKPKLKTLHWDKVRASSSRVMVWDQIKSNSFQVNEEMIETLFKVNDPTSRTRDGVVQSVSQENRFLDPRKSHNIAILLRALNVTADEVCEALIEGNSDTLGPELLECLLKMAPTKEEEDKLKELKDDDDGSPSKIGPAEKFLKALLNIPFAFKRIDAMLYIVKFESEIEYLNRSFDTLEAATGELKNTRMFLKLLEAVLKTGNRMNIGTNRGDAHAFKLDTLLKLVDIKGADGKTTLLHFVVQEIIKFEGARVPFTPSQSHIGDNMAEQSAFQDDLELKKLGLQVVSGLSSQLINVKKAAAMDSNSLINETAEIARGIAKVKEVITELKQETGVERFLESMNSFLNKGEKEITELQSHGDNVMKMVKEVTEYFHGNSETHPFRIFAVVRDFLTILDQVCKEVGRVNERTVYGSMPLHSPSN
notes: Arabidopsis thaliana Formin 2 (AtFH2, At2g43800), FH2 domain; cloned in pET23a; Mainly a dimer by size exclusion chromatography (about 100 kDa); source: E. coli Tuner (DE3) pLysS, purified (Ni-NTA)
  stoichiometry N: 2
